Measurements: the Immune Epitope Database (IEDB)

What was measured:
HLA-A*24:02 [1] = test: IEDB peptide-MHC binding, purified MHC/competitive/fluorescence; ≥ and ≤ were set here for values at or beyond the usual limits of such assays
HLA-A*11:01 [2] = test: as above
HLA-A*03:01 [3] = test: as above
HLA-B*58:01 [4] = test: IEDB peptide-MHC binding, purified MHC/direct/fluorescence; filed as Kd, often an IC50 or EC50 that approximates it; ≥ and ≤ were set here for values at or beyond the usual limits of such assays
HLA-B*15:17 = test: as above
HLA-B*57:01 [5] = test: as above
HLA-A*03:01 [6] = test: as above
HLA-A*31:01 [7] = test: IEDB peptide-MHC binding, purified MHC/competitive/fluorescence; filed as Kd, often an IC50 or EC50 that approximates it; ≥ and ≤ were set here for values at or beyond the usual limits of such assays
HLA-A*02:01 [8] = test: IEDB peptide-MHC binding, purified MHC/competitive/fluorescence; ≥ and ≤ were set here for values at or beyond the usual limits of such assays
HLA-A*11:01 [9] = test: IEDB peptide-MHC binding, purified MHC/direct/fluorescence; filed as Kd, often an IC50 or EC50 that approximates it; ≥ and ≤ were set here for values at or beyond the usual limits of such assays
HLA-A*69:01 [10] = test: as above
HLA-A*02:12 = test: as above; conditions: source organism: Mycobacterium tuberculosis str. Haarlem
HLA-B*58:01 [11] = test: IEDB peptide-MHC binding, purified MHC/competitive/radioactivity; filed as Kd, often an IC50 or EC50 that approximates it; ≥ and ≤ were set here for values at or beyond the usual limits of such assays
HLA-A*68:02 [12] = test: as above; conditions: source organism: Dengue virus 2 Jamaica/1409/1983
HLA-B*57:01 [13] = test: as above
HLA-A*01:01 = test: IEDB peptide-MHC binding, purified MHC/direct/fluorescence; filed as Kd, often an IC50 or EC50 that approximates it; ≥ and ≤ were set here for values at or beyond the usual limits of such assays
HLA-A*02:01 [14] = test: as above; conditions: source organism: Escherichia coli O157:H7
HLA-B*18:01 [15] = test: as above; conditions: source organism: Escherichia coli O157:H7
HLA-B*27:05 = test: as above; conditions: source organism: Escherichia coli O157:H7
HLA-B*48:01 = test: as above; conditions: source organism: Escherichia coli O157:H7
HLA-A*68:02 [16] = test: as above; conditions: source organism: Escherichia coli O157:H7
HLA-B*07:02 = test: as above; conditions: source organism: Escherichia coli O157:H7
HLA-A*31:01 [17] = test: as above; conditions: source organism: Escherichia coli O157:H7
HLA-B*40:01 = test: as above; conditions: source organism: Escherichia coli O157:H7
HLA-B*44:02 = test: as above; conditions: source organism: Escherichia coli O157:H7
HLA-B*15:01 [18] = test: as above; conditions: source organism: Escherichia coli O157:H7
HLA-A*24:02 [19] = test: IEDB peptide-MHC binding, purified MHC/competitive/radioactivity; filed as Kd, often an IC50 or EC50 that approximates it; ≥ and ≤ were set here for values at or beyond the usual limits of such assays; conditions: source organism: Dengue virus 1 Singapore/S275/1990
HLA-A*30:01 = test: as above; conditions: source organism: Dengue virus 1 Brazil/97-11/1997
HLA-A*68:01 = test: as above; conditions: source organism: Dengue virus 1 Brazil/97-11/1997
HLA-A*32:01 = test: as above; conditions: source organism: Dengue virus 1 Brazil/97-11/1997
HLA-A*69:01 [20] = test: IEDB peptide-MHC binding, purified MHC/competitive/fluorescence; filed as Kd, often an IC50 or EC50 that approximates it; ≥ and ≤ were set here for values at or beyond the usual limits of such assays; conditions: source organism: Macaca mulatta
HLA-B*27:03 = test: as above; conditions: source organism: Macaca mulatta
HLA-A*02:01 [21] = test: as above; conditions: source organism: Macaca mulatta
HLA-B*18:01 [22] = test: as above; conditions: source organism: Macaca mulatta
HLA-B*51:01 = test: as above; conditions: source organism: Macaca mulatta
HLA-B*46:01 = test: as above; conditions: source organism: Macaca mulatta
HLA-B*15:01 [23] = test: as above; conditions: source organism: Macaca mulatta
HLA-B*39:01 = test: as above; conditions: source organism: Macaca mulatta
HLA-A*26:01 = test: as above; conditions: source organism: Macaca mulatta
HLA-B*57:01 [24] = test: as above; conditions: source organism: Macaca mulatta
[25] = source organism: Zaire ebolavirus
[26] = source organism: Vaccinia virus
[27] = source organism: Influenza B virus
[28] = source organism: Sudan ebolavirus
[29] = source organism: Mammarenavirus lassaense
[30] = source organism: Vaccinia virus WR
[31] = source organism: Giardia lamblia ATCC 50803
[32] = source organism: Dengue virus 2 Jamaica/1409/1983
[33] = source organism: Escherichia coli O157:H7
[34] = source organism: Dengue virus 1 Singapore/S275/1990
[35] = source organism: Vibrio cholerae
[36] = source organism: Yersinia pestis

DYHKILTAG
IC50 (HLA-A*24:02 [1]; [25]): 39900 nM
IC50 (HLA-A*11:01 [2]; [25]): 58500 nM
IC50 (HLA-A*03:01 [3]; [25]): ≥ 164000 nM

INNQLLLQK
IC50 (HLA-A*11:01 [2]; [26]): 2440 nM
IC50 (HLA-A*03:01 [3]; [26]): 64200 nM

KSEPEGTRM
Kd (HLA-B*58:01 [4]; [27]): 19700 nM
Kd (HLA-B*15:17; [27]): 3500 nM
Kd (HLA-B*57:01 [5]; [27]): ≥ 20000 nM

MVLASTTAK
Kd (HLA-A*03:01 [6]; source organism: Influenza A virus (A/turkey/MN/735/79(H6N2))): 15.9 nM
Kd (HLA-A*31:01 [7]; source organism: Influenza A virus (A/swine/Hannover/1/1981(H1N1))): 46.1 nM

SLLQLPRDK
IC50 (HLA-A*02:01 [8]; [28]): 16500 nM
IC50 (HLA-A*11:01 [2]; [28]): 5080 nM
IC50 (HLA-A*03:01 [3]; [28]): 3840 nM

AVNNLVELK
Kd (HLA-A*11:01 [9]; [29]): 11.2 nM
Kd (HLA-A*03:01 [6]; [29]): 2400 nM
Kd (HLA-A*31:01 [7]; source organism: Lassa virus Josiah): 77.5 nM

LMQGSTLPR
Kd (HLA-A*03:01 [6]; source organism: Influenza A virus (A/South Carolina/1/1918(H1N1))): 6000 nM
Kd (HLA-A*31:01 [7]; source organism: Influenza A virus (A/swine/Italy/1509-6/97(H1N1))): 30.2 nM

STFTRGAQK
Kd (HLA-A*11:01 [9]; [29]): 1.5 nM
Kd (HLA-A*03:01 [6]; [29]): 78.4 nM
Kd (HLA-A*31:01 [7]; [29]): 27 nM

LLGQNTPAI
Kd (HLA-A*69:01 [10]; source organism: Mycobacterium tuberculosis): 1190 nM
Kd (HLA-A*02:12): 4 nM

LVDYGLVSK
IC50 (HLA-A*11:01 [2]; [30]): 1330 nM
IC50 (HLA-A*03:01 [3]; [30]): 12500 nM

TTHSKGATK
Kd (HLA-A*11:01 [9]; [31]): 246 nM
Kd (HLA-A*03:01 [6]; [31]): 337 nM
Kd (HLA-A*31:01 [7]; [31]): 454 nM

NASGNIVSSV
Kd (HLA-B*58:01 [11]; [32]): 112 nM
Kd (HLA-A*68:02 [12]): 48 nM
Kd (HLA-B*57:01 [13]; [32]): 464 nM

EEDAAVDDL
Kd (HLA-A*69:01 [10]; [33]): ≥ 20000 nM
Kd (HLA-B*58:01 [4]; [33]): ≥ 20000 nM
Kd (HLA-A*01:01; [33]): ≥ 20000 nM
Kd (HLA-A*02:01 [14]): ≥ 20000 nM
Kd (HLA-B*18:01 [15]): ≥ 20000 nM
Kd (HLA-B*27:05): ≥ 20000 nM
Kd (HLA-B*48:01): ≥ 20000 nM
Kd (HLA-A*68:02 [16]): ≥ 20000 nM
Kd (HLA-B*07:02): ≥ 20000 nM
Kd (HLA-A*31:01 [17]): ≥ 20000 nM
Kd (HLA-A*11:01 [9]; [33]): ≥ 20000 nM
Kd (HLA-B*15:17; [33]): ≥ 20000 nM
Kd (HLA-B*57:01 [5]; [33]): ≥ 20000 nM
Kd (HLA-B*40:01): 1440 nM

YECTSRHFT
Kd (HLA-A*69:01 [10]; [33]): ≥ 20000 nM
Kd (HLA-B*58:01 [4]; [33]): ≥ 20000 nM
Kd (HLA-B*44:02): ≥ 20000 nM
Kd (HLA-A*01:01; [33]): ≥ 20000 nM
Kd (HLA-A*02:01 [14]): ≥ 20000 nM
Kd (HLA-B*18:01 [15]): 318 nM
Kd (HLA-B*27:05): ≥ 20000 nM
Kd (HLA-B*48:01): ≥ 20000 nM
Kd (HLA-A*68:02 [16]): ≥ 20000 nM
Kd (HLA-B*07:02): ≥ 20000 nM
Kd (HLA-B*15:01 [18]): ≥ 20000 nM
Kd (HLA-A*31:01 [17]): ≥ 20000 nM
Kd (HLA-A*11:01 [9]; [33]): ≥ 20000 nM
Kd (HLA-B*15:17; [33]): ≥ 20000 nM
Kd (HLA-B*57:01 [5]; [33]): ≥ 20000 nM
Kd (HLA-A*03:01 [6]; [33]): ≥ 20000 nM
Kd (HLA-B*40:01): 2270 nM

VMASSVLLW
Kd (HLA-B*58:01 [11]; [34]): 1.28 nM
Kd (HLA-A*24:02 [19]): 113 nM
Kd (HLA-B*57:01 [13]; [34]): 6.56 nM

LRTYTILNR
IC50 (HLA-A*03:01 [3]; [28]): ≥ 286000 nM

TCKAFGLYK
IC50 (HLA-A*11:01 [2]; [30]): 1140 nM
IC50 (HLA-A*03:01 [3]; [30]): 6410 nM

KAYSEAETF
Kd (HLA-B*58:01 [4]; [35]): 23.8 nM
Kd (HLA-B*15:17; [35]): 21.5 nM
Kd (HLA-B*57:01 [5]; [35]): 173 nM

QRVIPVYQV
IC50 (HLA-A*02:01 [8]; [25]): ≥ 113000 nM
IC50 (HLA-A*11:01 [2]; [25]): 16200 nM
IC50 (HLA-A*03:01 [3]; [25]): ≥ 93500 nM

KTFDTEYQK
Kd (HLA-A*11:01 [9]; [34]): 12.5 nM
Kd (HLA-A*30:01): 388 nM
Kd (HLA-A*68:01): 4.6 nM
Kd (HLA-A*32:01): 7720 nM
Kd (HLA-A*31:01 [7]; source organism: dengue virus type 1): 128 nM

TSDGFINGW
Kd (HLA-B*58:01 [4]; [36]): 88 nM
Kd (HLA-B*15:17; [36]): 251 nM

RLNWLTHLK
Kd (HLA-A*03:01 [6]; source organism: Influenza A virus (A/Nagasaki/N03/2005(H3N2))): 264 nM
Kd (HLA-A*31:01 [7]; source organism: Influenza A virus (A/CHU/2-524/2005(H3N2))): 2.5 nM

LTGGTGVGK
IC50 (HLA-A*24:02 [1]; source organism: Variola virus): 38800 nM
IC50 (HLA-A*11:01 [2]; source organism: Variola virus): 998 nM
IC50 (HLA-A*03:01 [3]; source organism: Variola virus): 5750 nM

MVQVHSQGR
IC50 (HLA-A*11:01 [2]; [25]): 4760 nM
IC50 (HLA-A*03:01 [3]; [25]): 61400 nM

SAEVVTLWY
Kd (HLA-A*01:01; source organism: Pomacentrus moluccensis): 1.6 nM
Kd (HLA-A*69:01 [20]): ≥ 20000 nM
Kd (HLA-B*27:03): ≥ 20000 nM
Kd (HLA-A*02:01 [21]): ≥ 20000 nM
Kd (HLA-B*18:01 [22]): ≥ 20000 nM
Kd (HLA-B*51:01): ≥ 20000 nM
Kd (HLA-B*46:01): ≥ 20000 nM
Kd (HLA-B*15:01 [23]): ≥ 20000 nM
Kd (HLA-B*39:01): ≥ 20000 nM
Kd (HLA-A*26:01): ≥ 20000 nM
Kd (HLA-B*57:01 [24]): ≥ 20000 nM
